Laboratory results reported in patent US20250270343A1 (Alector, published 2025).

T1: soluble human GPNMB-Fc polypeptide (human, UniProt Q14956 23-498, limits assumed)
T1 construct: also called huGPNMB-Fc; not shown: Fc domain
T1 sequence (looked up): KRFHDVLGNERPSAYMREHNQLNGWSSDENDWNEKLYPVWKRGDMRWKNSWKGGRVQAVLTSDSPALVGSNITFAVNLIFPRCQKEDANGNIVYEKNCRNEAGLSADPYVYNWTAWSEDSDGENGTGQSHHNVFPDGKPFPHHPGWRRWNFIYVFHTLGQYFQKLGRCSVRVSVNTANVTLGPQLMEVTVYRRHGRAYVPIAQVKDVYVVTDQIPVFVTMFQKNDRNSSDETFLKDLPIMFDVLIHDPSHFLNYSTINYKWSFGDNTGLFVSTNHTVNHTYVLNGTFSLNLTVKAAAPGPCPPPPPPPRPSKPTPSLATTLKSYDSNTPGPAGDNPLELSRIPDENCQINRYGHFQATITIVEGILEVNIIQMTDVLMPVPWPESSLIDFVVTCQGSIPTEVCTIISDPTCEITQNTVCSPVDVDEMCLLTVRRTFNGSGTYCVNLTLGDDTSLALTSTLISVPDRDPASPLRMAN

B1: soluble mouse GPNMB-Fc polypeptide (Fc of human IgG1 or mouse IgG2A, not specified for the assay) (Fc fusion, UniProt Q99P91 23-502, looked up)
chain: KRFRDVLGHEQYPDHMREHNQLRGWSSDENEWDEHLYPVWRRGDGRWKDSWEGGRVQAVLTSDSPALVGSNITFVVNLVFPRCQKEDANGNIVYEKNCRNDLGLTSDLHVYNWTAGADDGDWEDGTSRSQHLRFPDRRPFPRPHGWKKWSFVYVFHTLGQYFQKLGRCSARVSINTVNLTAGPQVMEVTVFRRYGRAYIPISKVKDVYVITDQIPVFVTMSQKNDRNLSDEIFLRDLPIVFDVLIHDPSHFLNDSAISYKWNFGDNTGLFVSNNHTLNHTYVLNGTFNLNLTVQTAVPGPCPPPSPSTPPPPSTPPSPPPSPLPTLSTPSPSLMPTGYKSMELSDISNENCRINRYGYFRATITIVEGILEVSIMQIADVPMPTPQPANSLMDFTVTCKGATPMEACTIISDPTCQIAQNRVCSPVAVDGLCLLSVRRAFNGSGTYCVNFTLGDDASLALTSTLISIPGKDPDSPLRAVN
notes: extracellular domain; also called moGPNMB-Fc; mGPNMB; not shown: Fc region of human IgG1 or mouse IgG2A; in the Fab2 assay detected with anti-human IgG1 secondary antibody

What was measured:
[1] = target: T1, soluble human GPNMB-Fc polypeptide; assay: FACS, Fab2 blocking huGPNMB-Fc binding to SVEC4-10 cells
Description: (§1) Purified recombinant Fab2 fragments of select anti-GPNMB antibodies of the present disclosure were produced through transient transfection and purified. Briefly, 2 ug/mL soluble mouse or human GPNMB-Fc diluted in binding buffer was pre-complexed with increasing concentrations of anti-GPNMB Fab2 fragments in 96-well plates. Subsequently, 100,000 SVEC4-10 cells were added per well and incubated on ice for 30 minutes. Soluble moGPNMB-Fc or huGPNMB-Fc bound to cell surface was detected with fluorescent anti-human IgG1 secondary antibody and measured on FACSCanto. IC50 and EC50 values based on changes in MFI values were calculated for each antibody.

[2] = target: B1; assay: FACS, Fab2 blocking moGPNMB-Fc binding to SVEC4-10 cells
Description: as §1

[3] = target: T2, unidentified GPNMB ligand(s) on the surface of NHLF cells; assay: flow cytometry, titration of soluble moGPNMB-Fc on normal human lung fibroblasts; MFI-APC against concentration (ug/mL)
T2 construct: written like m62, for NHLF cells; also called Normal Human Lung Fibroblast Cells
From the text: The extracellular domain of GPNMB protein contains putative protein- or carbohydrate-binding domains capable of recognizing various ligands on the cell surface. […] Soluble mouse GPNMB-Fc polypeptide, consisting of the extracellular domain of mouse GPNMB and an Fc region of human IgG1 or mouse IgG2A (R&D System) (moGPNMB or mGPNMB) was used to confirm the binding activity of GPNMB towards different cell lines. Binding properties of soluble moGPNMB-Fc were examined by flow cytometry. Different cell lines (mouse SVEC4-10 cells, normal human lung fibroblasts (NHLF), mouse astrocytes, and human astrocytes were nonenzymatically harvested, plated at 100,000 cells/well, and incubated with increasing concentrations moGPNMB-Fc or control human IgG1 or control mouse IgG2A, in binding buffer (Hanks' balanced salt solution containing 1.3 mM CaCl₂, 0.8 mM MgSO₄, 3% fetal calf serum, and 10 mM HEPES) for 30 min on ice.
[…] Binding of soluble moGPNMB-Fc to cells was examined by FACSCanto (Becton Dickinson, San Jose, CA). In some experiments, the binding was performed in the presence of known GPNMB binding inhibitors (heparin, dextran sulfate, all purchased from Sigma).

[4] = target: B1; assay: FACS, Fab2 enhancing moGPNMB-Fc binding to SVEC4-10 cells
Description: as §1

[5] = target: T1, soluble human GPNMB-Fc polypeptide; assay: FACS, Fab2 enhancing huGPNMB-Fc binding to SVEC4-10 cells
Description: as §1

[6] = target: B1; assay: FACS ligand binding assay: 2 ug/mL moGPNMB-Fc pre-complexed with rising Fab2, then SVEC4-10 cells; blocked ligand: unidentified ligand(s) on SVEC4-10 cells; bound GPNMB-Fc detected with anti-human IgG1 secondary
Description: as §1

Row | Binder | IC50 [1] | EC50 [4] | EC50 [5] | further results
1 | recombinant Fab2 fragment of anti-GPNMB antibody GPN-35 (other, also called GPN-35 Fab2) VH: EVQLVESGGGSVRPGRSLKLSCAAAGFTFSDYYMTWVRQAPTKGLEWVASINHDGGGTYYRDSVKGRFTISRDNARSSLYLQMDSLRSEDTGTYYCTTRAGWHWGQGVMVTVSS VL: DIQMTQSPASLSASLGETVSIECLASEDIYNYLTWYQQKPGKSPQVLIYSASGLQDGVPSRFSGSGSGRQYSLKINGLESEDAATYFCLQDSEYPLTFGSGTKLEIK | 5.08 nM | – | – | IC50 [2]: 4.05 nM
2 | B1 | – | – | – | EC50 (read off the curve) [3]: ~0.1 µg/mL
3 | recombinant Fab2 fragment of anti-GPNMB antibody GPN-65 (other, also called GPN-65 Fab2) VH: QLQLQQSGTEVVKPGASVKIPCKASGYAFSSYWMNWVKQRPGKGLEWIGQIYPGDGDTNDNGKFEGKATLTVDKSSNTAYIQLSSLTSEDSAVYFCARSPLHLRGSMDYWGQGTSVTVSS VL: SIVMTQTPKFLLVSAGDRVTITCKASQSVSNDVAWFQQKPGQSPELLIYSASNRYTGVPDRFTGSGYGTDFTFTISTVQAEDLAVYFCQQNYYSPFTFGGGTRLEIK | – | 0.38 nM | 0.83 nM | –
4 | recombinant Fab2 fragment of anti-GPNMB antibody GPN-41 (other, also called GPN-41 Fab2) VH: QLQLQQSGTEVVKPGASVKIPCKASGYAFSSYWMNWVKQRPGKGLEWIGQIYPGDGDTNDNGKFEGKATLTVDKSSNTAYIQLSSLTSEDSAVYFCARSPLHLRGSMDYWGQGTSVTVSS VL: SIVMTQTPKFLLVSAGDRVTITCKASQSVSNDVAWFQQKPGQSPELLIYSASNRYTGVPDRFTASGYGTDFTFTISAVQAEDLAVYFCQQNYYSPFTFGGGTRLEIK | – | – | – | IC50 (read off the curve) [6]: ~4 µM
5 | recombinant Fab2 fragment of anti-GPNMB antibody GPN-38 (other, also called GPN-38 Fab2) VH: QVQLQQPGAELVRPGTSVRLSCKASGYTFTSYWIHWVKQRPGRGLEWIGVIDPSDSYTNYNQQFNVKATLTVDTSSSAAYMQLSSLTSEDSAVYYCARGLITAVNWYFDVWGTGTTVTVSS VL: DIQMTQSPASLSTSVGEIVTITCRASENIYSYLTWYQQKQGKSPQLLVYNAKTLAEGVPSRFSGSGSGTQFSLKINSLQPEDFGTYYCQHHYGTPLTFGSGTKLEIK | – | 5.83 nM | 2.15 nM | –
6 | recombinant Fab2 fragment of anti-GPNMB antibody GPN-37 (other, also called GPN-37 Fab2) VH: EVQLVESGGGLVQPGRSLKLSCAASGFTFSSKSGMAWVRQAPTKGLEWVASISNGGGDTYYRDSVKGRFTISRDNAKNTQYLQMDSLRPEDTATYYCARHRDYGYDAYFDYWGQGVMVTVSS VL: DIQMTQSPASLSASLGETVTIECLASEDIYSSLAWYQQKPGKSPQLLIYDASSLQDGVPSRFSGSESGTQYSLEINSLQSEDAATYFCQQHHDYPYTFGAGTKLELK | 9.49 nM | – | – | –
